Target: AP1 expressed in planta (35S::AP1 transgene, or ectopically activated in the tfl mutant) (Arabidopsis thaliana) (UniProt P35631)
Assay: cell-based or functional assay

AP1 expressed in planta (35S::AP1 transgene, or ectopically activated in the tfl mutant) (Arabidopsis thaliana), sequence (P35631 whole entry, change not shown): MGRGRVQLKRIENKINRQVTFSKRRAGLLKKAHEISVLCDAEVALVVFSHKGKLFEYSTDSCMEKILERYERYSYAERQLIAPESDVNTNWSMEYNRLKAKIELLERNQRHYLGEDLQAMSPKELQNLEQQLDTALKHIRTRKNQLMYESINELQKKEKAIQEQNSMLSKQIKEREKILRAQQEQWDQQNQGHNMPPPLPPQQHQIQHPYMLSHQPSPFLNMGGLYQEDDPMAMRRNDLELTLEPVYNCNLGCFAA

## SEP3 expressed from the 35S::SEP3 transgene in Arabidopsis (from UniProt O22456 1-251)
  rosette leaves formed before flowering, tfl mutation in combination with the 35S::SEP3 transgene (rosette leaves): 2
  rosette leaves produced before flowering, 35S::AP1 35S::SEP3 doubly transgenic plants (rosette leaves): 2
